Measurements from patent CN117866903A.

Biological target: T1, 生物素化的IL-17A of the IL-17A[Biotinylated] : IL-17RA Inhibitor Screening ELISA Kit (ACROBiosystems, EP-139) (UniProt Q16552)
T1 sequence (biotinylated, looked up): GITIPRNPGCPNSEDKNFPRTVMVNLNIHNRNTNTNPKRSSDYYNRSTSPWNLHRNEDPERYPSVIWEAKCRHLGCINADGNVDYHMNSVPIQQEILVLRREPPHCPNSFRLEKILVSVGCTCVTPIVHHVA
Experiment: competition ELISA kit (ACROBiosystems EP-139): IL-17RA coated, biotinylated IL-17A, culture supernatant diluted 5-fold

结合抑制率: 58%
B1: IL-17Nb secreted by C3-H10-MSC (1-C3-3-H10: Fc融合蛋白, VHH-(GGGGS)3-VHH-IgG4 Fc) (Fc fusion)
chain: DVQLVESGGGLVEPGESLRLSCAAPGEDLGYYAIAWFRQAPGKEREVVSCVTSSGSSTNYLSSVKDRFTISIDNAKNTVYLQMNSLKPEDTAVYYCASTILLCSDYISAFGTWGQGTQVTVASGGGGSGGGGSGGGGSEVQLVESGGGLVQPGGSLRLSCAASGFSIHIYAMGWYRQAPGKQRELVATITRGGVTNNADSVKGRFTISRDNAKNTAYLQMNSLKPEDTAVYYCNAGGTNGGYWGQGTQVTVSSAPEFLGGPSVFLFPPKPKDTLMISRTPEVTCVVVDVSQEDPEVQFNWYVDGVEVHNAKTKPREEQFNSTYRVVSVLTVLHQDWLNGKEYKCKVSNKGLPSSIEKTISKAKGQPREPQVYTLPPSQEEMTKNQVSLTCLVKGFYPSDIAVEWESNGQPENNYKTTPPVLDSDGSFFLYSRLTVDKSRWQEGNVFSCSVMHEALHNHYTQKSLSLSLGK
